Laboratory results: patent US20130177598A1, “DISCRETE SIZE AND SHAPE SPECIFIC PHARMACEUTICAL ORGANIC NANOPARTICLES” (The University of North Carolina at Chapel Hill, priority 2007, published 2013)

Experiment: Enzymatic activity assay of free horseradish peroxidase and PRINT particles thereof
Type: biochemical
Conditions: 10 ng/mL-10 mg/mL in buffer; compared with free horseradish peroxidase
Experimental: A standard enzymatic assay of horseradish peroxidase (reference P6782; Sigma Aldrich) was conduted on free horseradish peroxidase and PRINT particles thereof in the concentration range of 10 ng/mL-10 mg/mL in buffer. The substrates used were hydrogen peroxide and pyrogallol. […] See, FIG. 32.

**Q.** With “horseradish peroxidase PRINT particles: PRINT particles of horseradish peroxidase, 200 nm x 200 nm cylinders” as the substance, how does the “retention of biological structure and function after molding (enzyme activity)” value read?
**A.** The value was “retains biological structure and function”.
